Assays:
[1] = target: T1, urokinase plasminogen activator receptor (uPAR) (Homo sapiens, UniProt Q03405); experiment: Binding of individual phage clones to Sf9 cells expressing fluPAR (% recovery); details: for % Recovery uPAR: phage clone displaying the peptide, Sf9 cells expressing full length uPAR (fluPAR); for Specificity (uPAR/SPR): ratio of % recovery on uPAR Sf9 cells to % recovery on SPR Sf9 cells
T1 construct: 10^6 Sf9 cells expressing full length uPAR ("fluPAR", day 2 post infection); expressed in transfected cells; host or cells: Sf9 insect cells (baculovirus-infected)
Method: (§1) 1.) 15mer phage (2.5×10^10) prepared as described above were selected by coincubation with 10^6 Sf9 cells expressing full length uPAR ("fluPAR", day 2 post infection) at room temperature for 60 minutes in Grace's medium with 2% nonfat milk. Binding phage were eluted with 6M urea (pH 2.2), the pH neutralized by adding 2M Tris-HCl, and assayed. The yield of binding phage was 0.0013% (3.3×10^5 pfu). The phage were amplified on solid agar plates as plaques, eluted with Tris-buffered saline, and precipitated with polyethylene glycol.
(§2) 3.) The phage selected in round 2 were reselected on Sf9 cells expressing fluPAR (day 2 post-infection) as described for round 1 (2.8×10^10 phage on 10^6 Sf9 cells). The yield of binding phage from this round was 5.40% (1.5×10^9 pfu), indicating a substantial enrichment in binding phage. Phage from the urea eluate were cloned, and the DNA isolated and sequenced. Binding by individual phage clones was assayed against Sf9 cells expressing fluPAR, and Sf9 cells expressing substance P receptor (as a control).

substance P receptor = target: T2, substance P receptor (Homo sapiens, UniProt P25103); experiment: Binding of individual phage clones to Sf9 cells expressing substance P receptor (control); details: phage clone displaying the peptide
T2 construct: expressed in transfected cells; host or cells: Sf9 insect cells
Method: as §1, §2

T1 sequence (Q03405 23-335, species assumed): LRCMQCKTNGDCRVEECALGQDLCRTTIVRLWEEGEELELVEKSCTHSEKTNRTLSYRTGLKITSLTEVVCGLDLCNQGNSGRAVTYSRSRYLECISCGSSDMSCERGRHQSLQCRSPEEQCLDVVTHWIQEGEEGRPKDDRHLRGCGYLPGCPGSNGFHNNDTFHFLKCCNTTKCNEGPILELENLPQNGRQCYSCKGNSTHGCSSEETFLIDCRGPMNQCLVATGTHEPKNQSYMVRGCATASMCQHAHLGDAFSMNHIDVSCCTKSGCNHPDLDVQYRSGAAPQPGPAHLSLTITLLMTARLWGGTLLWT
T2 sequence (P25103 whole entry, species assumed): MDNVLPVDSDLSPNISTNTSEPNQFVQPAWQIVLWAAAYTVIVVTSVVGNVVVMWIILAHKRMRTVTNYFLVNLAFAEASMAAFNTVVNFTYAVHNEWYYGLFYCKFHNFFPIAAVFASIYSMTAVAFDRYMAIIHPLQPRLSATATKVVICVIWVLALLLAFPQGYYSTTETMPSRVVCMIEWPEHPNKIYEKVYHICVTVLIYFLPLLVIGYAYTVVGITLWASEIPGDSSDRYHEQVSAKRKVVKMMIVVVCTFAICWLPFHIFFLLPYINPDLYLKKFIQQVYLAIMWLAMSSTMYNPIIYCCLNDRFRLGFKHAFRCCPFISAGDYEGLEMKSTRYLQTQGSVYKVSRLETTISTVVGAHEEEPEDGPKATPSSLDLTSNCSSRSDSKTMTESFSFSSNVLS

| Sequence | % Recovery uPAR [1] | Specificity (uPAR/SPR) [1] | % Recovery SPR (substance P receptor) |
| --- | --- | --- | --- |
| AESSLWRIFSPSALMMS (displayed on phage) | 3.5% | 50 | 0.070% |
| AEMHRSLWEWYVPNQSA (displayed on phage) | 4.2% | 105 | 0.040% |
| AEPMPHSLNFSQYLWYT (displayed on phage) | 2.2% | 28 | 0.080% |
| AEPALLNWSFFFNPGLH (displayed on phage) | 4.7% | 47 | 0.100% |
| AECLNGGTAVSNKYFSNIHWCN (displayed on phage) [reference compound] | 6.8% | 850 | 0.008% |
| AESLPTLTSILWGKESV (displayed on phage) | 0.5% | 23 | 0.022% |
| AESQTGTLNTLFWNTLR (displayed on phage) | 2.8% | 350 | 0.008% |
| AESSLWTRYAWPSMPSY (displayed on phage) | 12.1% | 47 | 0.260% |
| AEPLDLWSLYSLPPLAM (displayed on phage) | 6.0% | 63 | 0.095% |
| AEWHPGLSFGSYLWSKT (displayed on phage) | 5.7% | 168 | 0.034% |
